# Assay: soluble on expression in E. coli; label from the status in PepcDB or PDB records
row,Sequence,soluble on expression in E. coli
1,TLYDKVWDQHKVTTLPNGQDQLFVGLHLIHEVTSPQAFGMIKERGLEVARPDLTHATVDHIVPTANQDRPYSDDAAETMMAELEENVRDAGIQFSDPTTGDQGIVHVIGPEQGITQPGKTIVCGDSHTSTHGAFGALAFGIGTSQIRDVLATQTIAMEKQKV,not soluble
2,MMLITTSHRPTRRTRSFGHDLERVFPNSLYLTRGKKTIQELLMEAYDRGYERLLILNVWKGNPLKMTFIKVHPEDWGYLGYLYLHGIKLQREMGFKGLNPIREDMPLVVTTAKRVGWDHIAFAQVFAELTTGKFVPRGDKSLTYIADKYDTDVIAVIERHPRGMVINFYRLDVTKDRPVGPLINVKIWIMEDGRRWDYKEALGIKVPRREKGEGQESSSENRDLEHHHHHH,soluble
3,MYDVVVVGAGPAGSRYARQAASRGLDVVVFEQGEIGKPLACSGHVSTDIWEFTEDARDELFQNEISGARFHTGGPGSQDHPFYKDEVISNVIDRVGLDKHLAGLARDAGADVREAHSVVGVTEDRDGVTVEVRGDDGVETHRAKMVAGCDGPKSRVRRELDLPEPDELLHGVLGFSDEVDHGDFVDVHLTVPRFFAWRIPRGEAGVEYGLAVPPGDDARGRFEEFVDGYGVETDHRCSGLIPIGPPKRVTGRRSFLIGDAAAQTKPFTGGGIRYGMTAADHAAREIDPEDPATLGEYERAWRDDLRQEIRLGHAVRAGYSAPEPIQKAGMKAFEGEIGVHMDRPTTLFSREQLAALFSRSLEHHHHHH,soluble
4,MSLASLCDLVGLPRSSFYRQSVFKVLEDQECETELRHQMQLICLEMPGYSYRRITAELHRRGWPVNHKRVLRLMRQDNLLCLRRKAFVRTTDSEHGFRVYPNLATNLMPSGLNQLWISDITYIRLQEEFVYLAIILDRYSRRVIGWSLSRHIDMELSLSALRMALSNREVLPGLIHHSDRGVQYASKAYIELLEEHKIAISMSRRGNPYDNAFAESFMKTLKYEEVLLNEYGDYREAQGNIARFIEEVYNRKRLHSSIGYLPPVEFEARVEHEISPASHPTEGHHHHHH,soluble
5,MINVDPPTGNFPASGGNSVHNIVSESDSRLAFKVKSSNNEHYRVRPVYGFIDPKGKTKLDINRIAGPPKVDKLVIQYAEVPADETDPQAPFKAGAQQGEVIVKITAE,not soluble
6,MRRLLTLWVLGLGALAQVPVGQVATRDVHALLWLPDGRLLFGHHDGLQVSEDEGRTWRDLVRKTGFDAMEHSFWRGDRLLAAEHWVLSESRDGGKTWRSFRPRGLPALDLHGYAASGGLHFALEATHGYFVSEDGGKTFKSTAPKGLPKAGMAAMVFQGKTLYVAPMGQGLYQSSDGGRTFTQVPTPEREIYALATGAGTLYLGGKTGLWQRTPAGWKRLWQGAVLALAAHPQEAGRLVFIDGQERVWKLP,soluble
7,MGCVGAGADAEGREARKVNKQIEEQLAKDKQVMRATHRLLLLGAGESGKSTIVKQMRILHINGFNEAEKREKITDIRRNVRDAMQVILRAMDEIVPKVSLDDPSTAISRDYILRITNDPEDNYPSEFYDHILTCWKDKGVMACYERSSEYQLIDCAQYFLDKVDVVRQNNYDPSEQDILRCRVMTTGIFETKFEVDKVRFHMFDVGGQRDERRKWIQCFNDVTAIIFVCASSSYNLVLWEDNTQNRLRESLALFKNIWNNRWLKTISVILFLNKQDLLSEKIKAKRYLLESFFPEFEGYNLPNDAVFDNQEDKDVVRAKYFIRGEFLRISTANSDGRHHCYPHFTCAVDTENIRRVFNDCRDIIQRIHLRQYELL,not soluble
8,MGSDKIHHHHHHMGKIISKFVCHECGYETPKWLGKCPGCSAWNSLLEESISNKPLRRTAERVAAIPLNQLSAEDSPRFSSGLSEFDRVLGGGIVPGSLILLGGDPGIGKSTLLLQVAGLIAAAGKRILYLSGEESLQQIRLRASRLGINNDTIFLLNEQDIDLLHEYINDLDPDLIIIDSIQTVYSSKLSSIPGSVSQLRESTAAVMQIAKKMDKAVFLVGHVTKDGSLAGPKVLEHIVDVVVYFEGEKNFSFRLLRAAKNRFGATDEIALLEMSGQGLVEVPDPSYVFLSPGRDISSGTAIVASMEGSRPLLIEIQALVSSLGAGYPRRMVSGIDQNRLSLIIAVLEKRRGYTLSACDVYLKVSGGVFLKDPSVDLGIAAAVLSSYLEKPLAMDTVFIGEISLSGQIRPVSFLDLRLREIDRMGYKRVIVPTSPGRLAKSSHNMEILEVKSLDHFIDIVLEG,not soluble
9,MTKTEPNNAQLDWLESESIHIIREVAAECENPALLFSGGKDSVVLLALACKAFRLGSRPVKLPFPLVHIDTGHNYPEVIAFRDAQAAKLNARLIVGRVEDSIAKGTVVLRKETDSRNAAQAVTLLETIEANGFDALMGGARRDEEKARAKERIFSFRDEFGQWDPKAQRPELWSLYNTRLHKGENMRVFPISNWTELDIWQYIARENLELPPIYYSHRREVVRRRGLLVPVTPLTPKMPSETSEILDVRFRTVGDISCTCPVESTASTPTEIIRETAVADISERSATRLDDQASEAAMEKRKKEGYF,not soluble
10,AQIDLNITCRFAGVFHVEKNGRYSISRTEAADLCKAFNSTLPTMAQMEKALSIGFETCRYGFIEGHVVIPRIHPNSICAANNTGVYILTSNTSQYDTYCFNASAPPEEDCTSVTDLPNAFDGPITITIVNRDGTRYVQKGEYRTNPEDIYPSNPTDDDV,soluble
11,MACERLGGQSGAADVDAAAPAMAAVNLTLGFAGKTVLDQVSMGFPARAVTSLMGPTGSGKTTFLRTLNRMNDKVSGYRYSGDVLLGGRSIFNYRDVLEFRRRVGMLFQRPNPFPMSIMDNVLAGVRAHKLVPRKEFRGVAQARLTEVGLWDAVKDRLSDSPFRLSGGQQQLLCLARTLAVNPEVLLLDEPTSALDPTTTEKIEEFIRSLADRLTVIIVTHNLAQAARISDRAALFFDGRLVEEGPTEQLFSSPKHAETARYVAGLSGDVKDAKRGN,not soluble
12,GPGSMRCVRSAAVLVKFGRSFDSTTRFGKELGFSHKMRDIPVLTGNPRPVAREEEWSCRYKLTDRMEDVVMDILKKEGWCEAEVQREMSEIFERKTQGCRSSLNTWTTVEEFQRTPWYRRYKPTDTCVAKYISYEVVKLLEEALIPPSLRGDPYAHLRKRHMEDNWMNDRFSEEAAKYIQREDLNKHTKGLPQYGQITRRKFLEFDRQFKESYGGKQHVNEAYSAWLQSIGKG,not soluble
13,MALAHVSRRVISNQIRCFAAANQETSLVHVEKQFEAIEPEKRDKDAFMAAIATFKEKRGRTHVEFINTALKYVKEYGVHKDIDTYKGLLEVFPKGKMIPQTVFQKVFLHYPQQQNCAVKVLDEMEWHGVQPDKEIHDIVVNAFGEWNFATKKVKRMLYWMPKLKHSNKYLDRRHVEGKSLSPSELAGIALKMMSRDAASSISLLKLSDSSDPQQKWLATSQSPMQQILISELRKGDEVFVDAAKVYLQDRVIPFITLTGNTKLEPLNEFKNEDMDEDYTNWYADWQKQRGEAKRSIHEQDHETIFAMGAMYKDDNATAIRWIDNLQKTNPNMENLRFRVRLEGNPIISRK,not soluble
14,MASNRGQLNHELSKLFNELWDADQNRMKSGKDYRISLQGKAGYVPAGSNQARDSASFPLFQFVDEEKLKSRKTFATFISLLDNYEMDTGVAEVVTPEEIAENNNFLDAILETKVMKMAHDYLVRKNQAKPTRNDFKVQLYNIWFQLYSRAPGSRPDSCGFEHVFVGESKRGQEMMGLHNWVQFYLQEKRKNIDYKGYVARQNKSRPDEDDQVLNLQFNWKEMVKPVGSSFIGVSPEFEFALYTIVFLASQEKMSREVVRLEEYELQIVVNRHGRYIGTAYPVLLSTNNPDLY,soluble
15,MALMSDKFLSIVIPAYNSEKYIEKNLMFLSRQTSNNFEVIVVDDGSTDNTCEVSEACLENFKINHRVIRCEENRGQSVARNIGINYSRGKYILFLDSDDFAENNLVQILERNMFNEPDIVFFDYKRIKEGDSVNVNIAQNFEFGKIKSGEEVFNAYKDNKIRLWTGSLVYNKEFLNKNKLRFLEGAHGAEDLNFIFKALLSSKKVRGIEDSLVFYCQRGDSLTNNPDIYKNITVVESMEDVAKFIDENKLDKKLKEAIEKEFTCEHIMYQILGYLNSETKKDTLSVLKNKNVKKYLKKATIKTNRYGRSMYTYMKMAAYFPNLFIKTYLKNTGKLEHHHHHH,soluble
16,MAHHHHHHMPRKETKKRKRAPSSAKESVSSTDEQGKRGGAFSKFKEFDVSELLQKPQEVPEIQPVVEEQPCSPCDEVVADPPPLTATDTVEATSEEPAAPIPQLIPPEPLKDLPPDEEFVPLPTIQVVPMMNRALEAQSGLLKEPAPPASIQRVTQPGALPPAMPTALMELLSG,soluble
17,MACCLSEEAREQKRINQEIEKQLQRDKRNARRELKLLLLGTGESGKSTFIKQMRIIHGQGYSEEDKRAHIRLVYQNVFMAIQSMIRAMDTLDIKFGNESEELQEKAAVVREVDFESVTSFEEPYVSYIKELWEDSGIQECYDRRREYQLTDSAKYYLSDLRRLAVPDYLPTEQDILRVRVPTTGIIEYPFDLEQIIFRMVDVGGQRSERRKWIHCFENVTSIMFLVALSEYDQVLVECDNENRMEESKALFRTIITYPWFTNSSVILFLNKKDLLEEKILYSHLADYFPEYDGPPRDPIAAREFILKMFVDLNPDADKIIYSHFTCATDTENIRFVFAAVKDTILQHNLKEYNLV,not soluble
18,MGSDKIHHHHHHMDVIIDKNSGYCFGVEFAIQMAEDEMATGEPLFCLGDIVHNSMEVERLAKKGLKIIDREELKKLSDCKVLIRAHGEPPETYQLALENNIELVDASCPVVLKLQNRVKASFDAIDSKDGQIVIYGQEGHAEVIGIAGQTGDKAIVITTEKDLDKIDFEKPVTLYSQTTKSTQGFYKMKDLIEARVAEAGKNVDENFEYNDSICRQVSNREPQLRKFSKEFDVVIFVSGKKSSNGKALYGVCKQENERSYFVENETEIEPSWIRATDNVGICGATSTPMWLMEKVQNYIQAHSWN,not soluble
19,MDRISGLPDEVLVKILSFVPTKVAVSTSILSKRWEFLWMWLTKLKFGSKRYSESEFKRLQCFLDRNLPLHRAPVIESFRLVLSDSHFKPEDIRMWVVVAVSRYIRELKIYSSHYGEKQNILPSSLYTCKSLVILKLDGGVLLDVPRMVCLPSLKTLELKGVRYFKQGSLQRLLCNCPVLEDLVVNLSHHDNMGKLTVIVPSLQRLSLSTPSSREFVIDTPSLLSFQLVDRNDNSHTFLIENMPKLREAYINVPFADIKSLIGSITSVKRLAISSEVGYGEGFIFNHLEELTLWNKYSSNLLVWFLKNSPNLRELMLVSETDVSFFH,soluble
20,MEKKRVVITGLGAVTPVGTDVETAWENIKKGVSGIGRLTRIDPELFPAKVAAEINDFEVEKYIDKKEARRMDRFTQYAVAAAKMAVADAKLEITEENGPRIGVWIGSGIGGMETYEEQFKIFTEKGPRRVSPFFVPMMIPDMAAGQVSIATGAKGINTCSVTACASGANSIGDAFKAIQRGDADAMITGGAEAPLTSMAFAGFSSAKALTFNEDPATACRPFDKNRSGFVMGEGSGILILEELEHALARGAHIYAEIAGYGATGDAFHITMPAPGGEGGVRAMRQALADAGLQPEDIDYINAHGTSTDANEKYETMAIKETFGEHAYKVAISSTKSMTGHLLGAAGAVEAIFSIKSITDGVIPPTINYETPDPECDLDYVPNNARHQEVNAVLSNSLGFGGHNAVLVFKSYK,not soluble
21,MKTSDIHDVAIVGAGPAGLSAAYELIRTGFTPLVLERTPAVGDVWRNHYDGLRLNSGRFFSALPGSKFPLSAGGWPSRDEVVSLLETFPARGGFTVQTGIEVEKVSHDRERDIWLITSNDNRQFESRAVVIAAGANRIPIIPEWEGKNTFTGTIIHSSQFKSAQDYAGKHVLVVGSGNSAAEIASRLAKYADSVTMSVRTPPQILPKSIYGIPLIGIGVWTRYLPRALVDGLLNFLRRTMIGDLSVYGLPSPTISMSKQYAINNVVPILYGPFIDDVRSGRIKIVGPVQKISGGTVEVLSTVESALNGDQATTTLQPDIIVAGTGFRTGFPELIQVPGITDEKGRSKISGDQEFKGAPRLYFIGQINPLSGQLREIRLEAGRIARKLDKQLRAKLEHHHHHH,soluble

# From the DeepSol protein solubility set
